# Measurements reported in patent US20060165677A1, “DELETION FORMS OF IgE-DEPENDENT HISTAMINE RELEASING FACTOR HAVING HISTAMINE RELEASING ACTIVITY, HRF-BINDING PEPTIDES AND THE USES THEREOF” (EWHA UNIVERSITY-INDUSTRY COLLABORATION FOUNDATION, priority 2005, published 2006).
# Entries after “also recorded” stand apart in the source; their conditions may differ.
# T1: Del-N35HRF (Rattus norvegicus, UniProt P63029)
# T1 construct: 6xHis (pRSET-A leader) (N); made in house; host or cells: E. coli BL21(DE3) or BL21(DE3)pLysS
# T1 sequence (P63029 35-172): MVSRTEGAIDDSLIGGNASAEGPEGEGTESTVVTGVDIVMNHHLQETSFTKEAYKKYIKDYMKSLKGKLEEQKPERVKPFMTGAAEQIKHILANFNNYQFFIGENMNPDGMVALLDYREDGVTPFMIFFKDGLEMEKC
# B1: Del-N39C110HRF: deletion form of rat HRF, amino acid 39-110 fragment (protein, listed as Rattus norvegicus)
# chain: TEGAIDDSLIGGNASAEGPEGEGTESTVVTGVDIVMNHHLQETSFTKEAYKKYIKDYMKSLKGKLEEQKPER
# B2: Del-C112HRF: deletion form of rat HRF, amino acid 1-112 fragment (protein, listed as Rattus norvegicus)
# chain: MIIYRDLISHDELFSDIYKIREIADGLCLEVEGKMVSRTEGAIDDSLIGGNASAEGPEGEGTESTVVTGVDIVMNHHLQETSFTKEAYKKYIKDYMKSLKGKLEEQKPERVK
# B3: RrHRF: recombinant total-length rat HRF, amino acids 1-172 (Accession number U20525) (protein, listed as Rattus norvegicus)
# chain: MIIYRDLISHDELFSDIYKIREIADGLCLEVEGKMVSRTEGAIDDSLIGGNASAEGPEGEGTESTVVTGVDIVMNHHLQETSFTKEAYKKYIKDYMKSLKGKLEEQKPERVKPFMTGAAEQIKHILANFNNYQFFIGENMNPDGMVALLDYREDGVTPFMIFFKDGLEMEKC
# B4: Del-N11HRF: deletion form of rat HRF, amino acid 11-172 fragment; 10 N-terminal residues deleted (protein, listed as Rattus norvegicus)
# chain: DELFSDIYKIREIADGLCLEVEGKMVSRTEGAIDDSLIGGNASAEGPEGEGTESTVVTGVDIVMNHHLQETSFTKEAYKKYIKDYMKSLKGKLEEQKPERVKPFMTGAAEQIKHILANFNNYQFFIGENMNPDGMVALLDYREDGVTPFMIFFKDGLEMEKC
# B5: Del-N35HRF: deletion form of rat HRF, amino acid 35-172 fragment; 34 N-terminal residues deleted (protein, listed as Rattus norvegicus)
# chain: T1 sequence (P63029 35-172)
# Tests used:
# deletion forms of HRF = experiment: Inhibition by HRF-binding peptide of HRF-induced histamine secretion in RBL-2H3 cells; type: cell-based; settings: RBL-2H3 cells sensitized with rat IgE
# Description: RBL-2H3 cells (ATCC) were cultured in 24-well plate at the concentration of 5×10^4 cells/well, followed by sensitization with rat IgE antibody (0.2 μg/Ml, Serotec) for 60 minutes. The cells were treated with […] of recombinant HRF protein in 5% FBS/MEM medium (positive control). The cells were treated with heptamer peptide (Korean Registered Patent No. 457350B1) with different concentrations (0.0156-15.6 mM). 15 minutes later, rat anti-IgE antibody was added thereto. 4 hours later, supernatant was obtained and the isolated histamine was measured by using histamine analyzer (Astoria Analyzer, Series 300 system).
# Del-N35HRF = biological target: T1, Del-N35HRF; experiment: Inhibition by HRF-binding peptides of Del-N35HRF-induced IL-8 secretion in BEAS-2B cells; type: cell-based; settings: Del-N35HRF 61 nM, peptide 6.1-610 nM, 24 hours
# Description: The interactions between HRF-binding peptides and deletion forms of HRF were investigated in BEAS-2B cells. Del-N35HRF (61 nM) was treated to BEAS-2B cells by the same manner as described in Example 3. At that time, HRF-binding peptide and its mutant in which alanine was replaced (Korean Registered Patent No. 457350B1), and HRF-binding peptides in which amino acid 1 or 7 was deleted were added to Del-N35HRF with different concentrations (6.1-610 nM), followed by standing at room temperature for 10 minutes, which would be added to the cell lines. 24 hours later, supernatant was obtained and the released IL-8 was quantified by PIERCE.
# [1] = test system: phage φ-HBP-2 expressing HRF-binding peptide; experiment: Phage display peptide clone-binding capacity of immobilized HRF forms (ELISA); settings: HRF form immobilized on plate, ELISA at 405 nm
# Description: Each deletion form of HRF was immobilized on a plastic well, to which phage expressing HRF-binding peptide was added in order to investigate binding capacity of each HRF.
# Particularly, each deletion form of HRF dissolved in coating buffer (0.1 M NaHCO3, pH 8.6) at the concentration of 20 μg/Ml was placed on polystyrene microtiter plate by 50 μl, followed by coating at 4° C. for overnight and non-specific binding was blocked with BSA. The plate was washed with 0.1% tween/TBS (TBST) 6 times, to which 30 μl of phage solution diluted in 30 μl of 6% BSA/PBS was added. The solution stood at room temperature for 2 hours. After washing with PBST five times, 100 μl of […] anti-M13 antibody (Pharmacia), diluted in 3% BSA/PBS at the ratio of 1:5000, was added to the solution, followed by standing at room temperature for one hour. After washing 6 times with PBST and once more with PBS, 100 μl of peroxidase substrate solution was added and color development was measured at 405 nm by using ELISA reader (Bio-Rad).
# [2] = test system: IgE sensitized human basophils; experiment: Histamine releasing activity in human basophils according to HRF forms; type: cell-based; settings: compared with wild type HRF
# Description: The activities of different deletion forms of HRF were compared by investigating histamine secretions in human basophils. 40 Ml of venous blood was taken from a donor with atopic dermatitis. To the blood sample was added 10 mM of EDTA, an anticoagulant, and 10 Ml of dextran containing 6% saline. The solution stood at room temperature for 90 minutes and then supernatant containing leukocytes was separated, followed by centrifugation at 150×g for 8 minutes. The recovered leukocytes were washed twice with PAG-EDTA (4 mM EDTA, 25 mM PIPES, 110 mM NaCl, 5 mM KCl, 0.003% HSA, 0.1% D-glucose), which were left in cold lactate buffer (13.4 mM lactic acid, 140 mM NaCl, 5 mM KCl, pH 3.9) for 3-5 minutes to eliminate IgE adhered on the surface of cells. The cells were washed with 30 Ml of PAG-EDTA twice and resuspended in PAG-EDTA, followed by IgE-sensitization (1 μg/Ml, Serotec) for 2 hours. Then, the cells were washed with IMDM medium (Gibco BRL) supplemented with 5% FBS twice, to which each recombinant protein (rHRF or each deletion form of HRF) prepared in Example <1-3> was added by 20 μg/Ml. 15 minutes later, human anti-IgE antibody was added thereto. Four hours later, supernatant was obtained. The isolated histamine was measured by histamine analyzer (Astoria Analyzer, Series 300 system) (FIG. 6).
# BEAS-2B cells = experiment: IL-8 releasing activity in BEAS-2B cells according to HRF forms; type: cell-based; settings: for IL-8 releasing activity at low level of HRF: HRF 1 μg/Ml, lower than minimum level for IL-8 secretion by wild type HRF; for IL-8 releasing activity: compared with wild type HRF
# Description: The activities of different deletion forms of HRF were compared by investigating IL-8 secretions in BEAS-2B cells (ATCC). BEAS-2B cells were cultured in 48-well plate until they were 70% grown up. Then, the cells were washed with 1% penicillin-streptomycin/BEBM (Clonetics) twice, to which each recombinant protein (RrHRF or each deletion form of HRF) separated in Example <1-3> was added by 1 μg/Ml or 10 μg/Ml. 48 or 24 hours later, supernatant was obtained and IL-8 therein was measured by PIERCE (FIG. 5).
molecule,measurement,setting,value
HBP-2: HRF-binding heptamer peptide having the sequence WYVYPSM (Korean Registered Patent No. 457350B1),inhibition of histamine releasing by deletion forms of HRF,deletion forms of HRF,inhibits
same,inhibition of histamine releasing by deletion forms of HRF,deletion forms of HRF; listed as HRF-binding peptide,dose-dependently
same,inhibition of IL-8 secretion by deletion forms of HRF,Del-N35HRF,inhibits
same,inhibition of IL-8 secretion by deletion forms of HRF,Del-N35HRF; listed as HRF-binding peptide,dose-dependently
"Del-N84C108HRF: deletion form of rat HRF, amino acid 84-108 fragment (TKEAYKKYIKDYMKSLKGKLEEQKP; listed as Rattus norvegicus)",affinity to phage expressing HRF-binding heptamer peptide (HBP2),[1],high
same,affinity to phage expressing HRF-binding heptamer peptide (HBP2),[1]; listed as SEQ ID NO:8,excellent
B1,affinity to phage expressing HRF-binding heptamer peptide (HBP2),[1]; listed as SEQ ID NO:5,excellent
B2,histamine releasing activity,[2],as much as that of wild type HRF
same,affinity to phage expressing HRF-binding heptamer peptide (HBP2),[1],very weak and weak
B3,affinity to phage expressing HRF-binding heptamer peptide (HBP2),[1],very weak
same,affinity to phage expressing HRF-binding heptamer peptide (HBP2),[1]; listed as wild type HRF,weak
B4,histamine releasing activity,[2],more effectively than wild type HRF; also recorded: increased
same,histamine releasing activity,[2]; listed as SEQ ID NO:2,similarly induced histamine releasing
same,IL-8 releasing activity at low level of HRF,BEAS-2B cells,detected
same,IL-8 releasing activity,BEAS-2B cells,greater
same,IL-8 releasing activity,BEAS-2B cells; listed as SEQ ID NO:2,increased
same,affinity to phage expressing HRF-binding heptamer peptide (HBP2),[1],very strong
B5,histamine releasing activity,[2],more effectively than wild type HRF; also recorded: increased
same,histamine releasing activity,[2]; listed as SEQ ID NO:3,excellent; also recorded: similarly induced histamine releasing
same,IL-8 releasing activity at low level of HRF,BEAS-2B cells,detected
same,IL-8 releasing activity,BEAS-2B cells,greater
same,IL-8 releasing activity,BEAS-2B cells; listed as SEQ ID NO:3,excellent; also recorded: increased
same,affinity to phage expressing HRF-binding heptamer peptide (HBP2),[1],very strong
